Reference: patent US20170043014A1 (Novo Nordisk, published 2017)

Biological target: Recombinant mouse IL-21 (mouse, UniProt Q9ES17 18-146)
Assay: capture style ELISA, clone selection

binding result: binds
B1: Mouse surrogate anti-IL-21 antibody (antibody, IgG1, V domains shown)
VH: EVQLVESGGGLVKPGGSLKLSCAASGFTFNRYSMSWVRQSPEKRLEWVAEISVGGSYTQYVDIVTGRFTISRDNAKNTLYLEMSSLRSEDTAMYYCARLYYSGSGDSYYYAMDYWGQGTSVTVSS
VL: QTVLIQSPAIMSASPGEKVTMTCSASSSVSYMHWYQQKSGTSPKRWIYDTSKLASGVPARFSGSGSGTSYSLTISSMEAEDAATYYCQQWNSNPPTFGGGTKLEMK
notes: mIgG1/kappa isotype
